B1: TPR t1 (parent)
chain: GACCAAUCUGCCCUCAGAGCUCGAGAACAUCUUCGGAUGCAGAGGAGGCAGGCUUCGGUGGCGCGAUAGCGCCAACGUCCUCAACCUCCAAUGCAUCCCACCACAUGAUGAUGCCUGAAGAGCCUUGGUUUUUUG

Variants of: B1
Assay: polymerase ribozyme fitness, log enrichment relative to wild type (log ratio); higher = more active; in vitro selection for triplet polymerase activity
How it was run: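 Only genotypes with ≥10 input reads and ≥1 read per output were kept after Illumina sequencing of input and output libraries. These libraries were PCR-built, transcribed mutants of each subunit of a heterodimeric triplet polymerase ribozyme, each put through one triplicate in vitro selection round with frozen incubation at −7 °C, gel excision of extended constructs, streptavidin-bead capture and RT-PCR. Fitness is a logarithmic ratio of genotype enrichment to wild-type enrichment, from inverse-variance-weighted replicate averages, with the logarithm in base 2.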

Variant | polymerase ribozyme fitness (log ratio)
C40A G69C U106A C124A | -1.51
G42A C73A C89G | -2.01
G63U C64G | -4.92
U125G | -1.01
C101A C115G | -2.5
C22A G60A U96A U130C | -4.99
U7G A16G A18C G117U | -0.355
A50G C53G G60U C72U C101A G117A | -4.06
A2G C12A | -0.474
G10A G44U U92G C115A | -3.73
C8U C12U | 0.659
A27U G120A | -1.65
U38C | -0.501
A26U A50C U55G | -4.51
C3U C11U G71A A119G | -0.255
A108G C115U | -3.36
C70U G113A C123A | -2.31
G23A | -4.43
G35A G69C C115U | -6.53
C22U A46U G69U G117A | -4.33
C49A C70A | -1.29
A46U G71A C85G G122A | -5.93
U33C G63A U78C C80A C99A C102A U116G | -6.04
G10U G71A G120U | 1.24

Variant | polymerase ribozyme fitness (log ratio)
C15A A27G G39A G44A G69U G71U C82U C88U C102U | -6.86
G39C C104U | -1.04
A6U C12U C56U A95G | -0.128
C22U A121C | -3
A43G | -1.32
G19U C53G U54A C124A G128A | -3.23
U81A C101A G110C U131G G135U | -7.53
U55G A103C | -4.87
C56G C72A G110U A111G | -2.87
G71U G93C | -2.12
C34G C97U C123A | -6.44
C62U A95U A105U | -3.17
C34A U87A | -3.34
U54G C72G U129A | -2.34
C11G A37C A46C G63U C123U | -1.9
A103C | -5.01
A5G C34G G69U C82G | -2.92
C102A U106G | -4.52
U9G A27C C114A | -3.98
C79A C102U | -4.37
C62G U116A | -4.13
A2U G52U C53A G63U U132C | -2.74
G10U C40G U96G | -4.29
G39U U78C | -0.554

Variant | polymerase ribozyme fitness (log ratio)
C15A C53U | -1.61
G42U A83C G127U | -2.25
G42U C49U | -2.98
A43C G61A | -2.52
A2U A18U A29U A41U G60A | -5.23
C72U C104A | -2.05
U21C C49A A84U C88G C101G U133A | -2
C11U C22U C40G | -4.75
G65U G69U G113A U130G | -4.13
C98U C99A A118U U130C | -5.55
A5U A6C C49G U54A | -0.438
C20G A41U C104A G113A U132C | -5.25
C28A G117A | -4.5
U9G A26G G45U C73U C99U U112A | -4.85
G10A G57U C72A C79A U96A | -2.33
C31U C89G | -5.1
A50U U81C C114A | -6.09
C8A C40U A90C | -0.703
C53G C76G A100U | -0.651
U14G G48A C104A | -3.69
A2U U129A | 0.107
G71U A105U | -2.22
A74U C89G U112A | -2.2
G47U A111G G120A | -2.18

Variant | polymerase ribozyme fitness (log ratio)
C12U C70A C88U U129C | -1.99
C12A A18C U81G G120A | -5.16
C22U C98U | -4.36
G61A C82G | -1.29
A18U A43G G60A U92C U112C | -0.561
A5G A50U G63A G117A | -6.03
A119U G135U | -1.1
C4U G17C G69U | -2.09
A26G C73A A100U | -2.85
C40U C88A U106C | -1.06
G135A | -0.639
C8G G69C U78G C101A | -3.19
A5G G42U C80A | -5.11
G47U G71C | -2.44
C15U C64U | -1.59
G93A U129A | -1.36
A46G A50U C88A C89A C124A U133A | -0.0922
C123U G135U | -0.4
A37C C97U | -1.69
C3U G69U A121G U125A | 2.91
C15G U78G | -2.92
U78A G93C | -0.506
C15U A43C G69A | -4.44
C73G A83G | -1.44

Variant | polymerase ribozyme fitness (log ratio)
C13A C22A C31A A46U G71A G120A | -6.56
U106A U125G | -0.507
G44U G48U C114A | -2.93
U109A U112A | -4.47
C70G U92C C123A | -5.06
C62A U81C C82A C98U | -4.18
U38A G93U C123U | -3.41
U7G C8U C15U G17A A50G | -3.01
G60A C94A G110U | -3.31
C4G A18U G25C C62A A111U | -6.22
A46G G63C | -1.22
C3A C102U A121G | -0.526
A74G C102U | -2.11
G61A U116G G128U | -3.71
C53U G58C U81G C88A C89U G120C | -4.46
G60C C98U | -0.75
C76U C80G U96C G120C | -4.89
G17U C28U G39A G110A | -2.46
G69C G117C | -3.97
A46U G47A C72U A121G U130C | 0.526
G17U C34A C124G U133A | -2.78
G61A A118C G120C U126G | -4.35
C49U G93A G122A | -1.37
G47U G57A G69U | -1.68

Variant | polymerase ribozyme fitness (log ratio)
G93A U132C | -0.827
C15A G39C C114G | -4.44
C11U A83C G93A G120A U131C | 0.209
C72U C101A C115A C123A | -3.06
A18U C49G | -3.54
G47U G127A | -2.68
C15A C53U A66U | -4.71
A5G G58A G63A | -0.764
C11G C12G C104A U106A | -3.92
G48A U96A | -1.94
A5C C12A A43G G60C | -4.18
A46U C73G U133G | -1.42
C11A C88G | -2.99
C8A C34G G117C | -6.88
G10U G63U C79U U132A | -0.795
A2G U7C G10U G52C | -1.99
G48C G93A | -1.82
C73G U112A G117U | -2.94
G69A G77C | -4.57
A41G A46C | -1.95
U7G C70U | -0.201
A2U G60U | -1.99
C40U C49A A50G C62U A105G | -4.71
C102U C123A | -2.63

Variant | polymerase ribozyme fitness (log ratio)
C13G C72U U132A | -2.7
C8U U9G G60A | -0.0864
A16U G47U G52A | -4.24
U7G C13A A37C G52A G69U U92A A105U | -4.57
G10A A29G G113A U130A | -3.73
U21G G71U | -2.37
U21C A26G | -2.38
U7G C12A C101G U116C | -2.39
A37C G51C | -4.02
G45U C94A | -1.66
C73A G120C | 1.81
G47U G60A | -1.93
A6C G47U | -1.55
C12A C20U C114U | -0.454
U30A C56A C82A U87A C114G G122A | -6.34
C4U G10A U21A G44A A83U | -1.59
C11A A16G G23U G39C C76U A95C G113U C114G | -7.17
C34A A50U A83G | -4.58
C70U C124A | 1.38
C3U A26U G48A U130G | -5.25
G39C C53G G107C A121U | -4.92
A5U C11U | -1.46
U87C U109C U130C | -5.36
